Results published in patent US20150322137A1 (EVEC, published 2015).

How the values were obtained:
[1] = biological target: T1, F protein of human metapneumovirus strain JPS02-76 (type B1), on infectious virus (human metapneumovirus, strain JPS02-76 …, UniProt Q6WB98 19-539); experiment: cell-based or functional assay
[2] = biological target: T2, F protein of human metapneumovirus strain JPS05-21 (type B2), on infectious virus (human metapneumovirus, strain JPS05-21 …); experiment: cell-based or functional assay
[3] = biological target: T3, F protein of human metapneumovirus strain JPS03-180 (type A1), on infectious virus (human metapneumovirus, strain JPS03-180 …); experiment: cell-based or functional assay
[4] = biological target: T2, F protein of human metapneumovirus …; experiment: cell-based or functional assay; remark: listed apart in the source
[5] = biological target: T3, F protein of human metapneumovirus …; experiment: cell-based or functional assay; remark: listed apart in the source
[6] = biological target: T4, F protein of human metapneumovirus strain JPS03-178 (type A2), on infectious virus (human metapneumovirus, strain JPS03-178 …); experiment: cell-based or functional assay
[7] = biological target: T1, F protein of human metapneumovirus …; experiment: cell-based or functional assay; remark: listed apart in the source
[8] = biological target: T2, F protein of human metapneumovirus …; experiment: cell-based or functional assay; remark: listed apart in the source
[9] = biological target: T3, F protein of human metapneumovirus …; experiment: cell-based or functional assay; remark: listed apart in the source
[10] = biological target: T4, F protein of human metapneumovirus …; experiment: cell-based or functional assay; remark: listed apart in the source
[11] = biological target: T1, F protein of human metapneumovirus …; experiment: cell-based or functional assay; remark: listed apart in the source
[12] = biological target: T2, F protein of human metapneumovirus …; experiment: cell-based or functional assay; remark: listed apart in the source
[13] = biological target: T3, F protein of human metapneumovirus …; experiment: cell-based or functional assay; remark: listed apart in the source
[14] = biological target: T4, F protein of human metapneumovirus …; experiment: cell-based or functional assay; remark: listed apart in the source
[15] = biological target: T1, F protein of human metapneumovirus …; experiment: cell-based or functional assay; remark: listed apart in the source
[16] = biological target: HA-V5-Full, hMPV (JPS02-76) FP with HA-Tag downstream of the signal peptide and linker and V5-Tag do (human metapneumovirus, strain JPS02-76 …); experiment: cell fluorescent immunostaining, fixed transfected CHO-K1 cells
[17] = biological target: FP-TM(-)-His, His-Tag-added hMPV (JPS02-76) FP lacking the transmembrane region (amino acid residues 491 to … (human metapneumovirus, strain JPS02-76 …, UniProt Q6WB98 19-490)); experiment: SPR, Biacore T-200; antibody captured by anti-human IgG, FP-TM(-)-His as analyte
[18] = biological target: T1, F protein of human metapneumovirus …; experiment: cell-based or functional assay; remark: listed apart in the source

| Binder | IC50, neutralizing activity (hMPV infection of LLC-MK2 cells) [2] [µg/mL] | IC50, neutralizing activity (hMPV infection of LLC-MK2 cells) [3] [µg/mL] | IC50, neutralizing activity (hMPV infection of LLC-MK2 cells; GraphPad Prism 6) [4] [µg/mL] | IC50, neutralizing activity (hMPV infection of LLC-MK2 cells; GraphPad Prism 6) [5] [µg/mL] | IC50, neutralizing activity (hMPV infection of LLC-MK2 cells; GraphPad Prism 6) [6] [µg/mL] | IC60, neutralizing activity (hMPV infection of LLC-MK2 cells; GraphPad Prism 6) [7] [µg/mL] | IC60, neutralizing activity (hMPV infection of LLC-MK2 cells; GraphPad Prism 6) [8] [µg/mL] | IC60, neutralizing activity (hMPV infection of LLC-MK2 cells; GraphPad Prism 6) [9] [µg/mL] | IC60, neutralizing activity (hMPV infection of LLC-MK2 cells; GraphPad Prism 6) [10] [µg/mL] | IC90, neutralizing activity (hMPV infection of LLC-MK2 cells; GraphPad Prism 6) [11] [µg/mL] | IC90, neutralizing activity (hMPV infection of LLC-MK2 cells; GraphPad Prism 6) [12] [µg/mL] | IC90, neutralizing activity (hMPV infection of LLC-MK2 cells; GraphPad Prism 6) [13] [µg/mL] | IC90, neutralizing activity (hMPV infection of LLC-MK2 cells; GraphPad Prism 6) [14] [µg/mL] | IC50, cell-to-cell spread inhibitory activity (LLC-MK2 cells stably expressing TMPRSS2) [15] [µg/mL] | IC90, cell-to-cell spread inhibitory activity (LLC-MK2 cells stably expressing TMPRSS2) [15] [µg/mL] | other results |
| --- | --- | --- | --- | --- | --- | --- | --- | --- | --- | --- | --- | --- | --- | --- | --- | --- |
| EV046113 (antibody, human IgG1, kappa, V domains shown) VH: QVQLVESGGGLVRPGGSLRLSCAASGFTFSDYFMTWIRQAPGKGLEWVSYINSIGSVIFYADSVEGRFTVSRDNTMKSLFLQMNSLTAEDTAVYYCARSCRISYGASGGFSCGMDVWGQGTPVTVSS VL: DIQMTQSPSSLSASVGDRVTITCQASQSIRENINWYQQKTGKAPKLLIYDASILETGVPSRFSGSGSGTHFTFTISSLQPEDMATYYCQQYHHLITFGQGTRLDIKR | 0.39 | 0.38 | 0.491 | 0.418 | 0.645 | 0.819 | 0.652 | 0.522 | 0.76 | 1.48 | 2.29 | 1.39 | 1.56 | 0.108 | 0.707 | IC50, neutralizing activity (hMPV infection of LLC-MK2 cells) [1]: 0.68 µg/mL; binding result [16]: binds; Kd [17]: 0.265 nM; koff [17]: 0.000123 s⁻¹; kon [17]: 463000 M⁻¹ s⁻¹ |
| EV046120 (antibody, human IgG1, lambda, V domains shown) VH: EVQLVESGGGLVKPGGSLRLSCAASGFTFSSYSMNWVRQAPGKGLEWVSSISSSSSYIYYADSLKGRFTVSRDNAKKSLYLQMNSLRAEDTAVYYCARVDYGTNSEVGRFDPWGQGTLVTVSS VL: QSVLTQPPSVSGTPGQRVTISCTGSSSNIGAGYAVHWYQQLPGTAPKLLIYDSINRPSGVPDRFSGSKSGTSASLAITGLQTEDEADYYCHSYDRSLSGSVFGGGTKLTVLG | 0.24 | 0.32 | 0.249 | 0.3 | 0.0971 | 0.344 | 0.301 | 0.421 | 0.138 | 1.65 | 0.694 | 1.88 | 0.653 | 0.0132 | 0.0669 | IC50, neutralizing activity (hMPV infection of LLC-MK2 cells; GraphPad Prism 6) [18]: 0.241 µg/mL |
